Reference: patent publication US20220259593A1, “CONTROL OF MAMMALIAN GENE DOSAGE USING CRISPR” (The Regents of the University of California, priority 2019, published 2022)
Numbering of substitutions follows the chain as printed.

B1: cr685 (nucleic acid)
guide: GTTTAAGAGCTAAGCTGGAAACAGCATAGCAAGTTTAAATAAGGCTAGTCCGTTATCAGCTTGAAAAAGTGGCACCGAGTCGGTGCT
modifications: listed as DNA, chemistry not fully specified
B2: cr892 (nucleic acid)
guide: B1 guide with G59A, T61G, A68C, A74G, C75A, G83T, T84C
modifications: listed as DNA, chemistry not fully specified
B3: cr591 (nucleic acid)
guide: B1 guide with A55G, A58T, G59A
modifications: listed as DNA, chemistry not fully specified
B4: cr466 (nucleic acid)
guide: B1 guide with T40A, G59A
modifications: listed as DNA, chemistry not fully specified
B5: cr897 (nucleic acid)
guide: B1 guide with A38T, G59A
modifications: listed as DNA, chemistry not fully specified
B6: cr210 (nucleic acid)
guide: B1 guide with A58T, G59A, A65C
modifications: listed as DNA, chemistry not fully specified
B7: cr709 (nucleic acid)
guide: B1 guide with C57T, G59A, G71T
modifications: listed as DNA, chemistry not fully specified
B8: cr027 (nucleic acid)
guide: B1 guide with T3C, G7A, G59A
modifications: listed as DNA, chemistry not fully specified
B9: cr108 (nucleic acid)
guide: B1 guide with G43A, C51T, G59A, A65G
modifications: listed as DNA, chemistry not fully specified
B10: cr146 (nucleic acid)
guide: B1 guide with G59A, C76G, G77C, C81G, G82C
modifications: listed as DNA, chemistry not fully specified
B11: cr468 (nucleic acid)
guide: B1 guide with T34A, G59A
modifications: listed as DNA, chemistry not fully specified
B12: cr322 (nucleic acid)
guide: B1 guide with T49C, C57G, G59A
modifications: listed as DNA, chemistry not fully specified
B13: cr209 (nucleic acid)
guide: B1 guide with A41C, G59A
modifications: listed as DNA, chemistry not fully specified
B14: cr586 (nucleic acid)
guide: B1 guide with T34C, G59A, A74C, T84G
modifications: listed as DNA, chemistry not fully specified
B15: cr055 (nucleic acid)
guide: B1 guide with T2G, A8C, G59A
modifications: listed as DNA, chemistry not fully specified
B16: cr173 (nucleic acid)
guide: B1 guide with G43A, C51T, G59A, C73T, C75G, G83C, G85A
modifications: listed as DNA, chemistry not fully specified
B17: cr069 (nucleic acid)
guide: B1 guide with T2C, G7A, G59A
modifications: listed as DNA, chemistry not fully specified
B18: cr002 (nucleic acid)
guide: B1 guide with G1C, G59A
modifications: listed as DNA, chemistry not fully specified
B19: cr850 (nucleic acid)
guide: B1 guide with G59A, A78G, T80G
modifications: listed as DNA, chemistry not fully specified
B20: cr004 (nucleic acid)
guide: B1 guide with T2A, G59A
modifications: listed as DNA, chemistry not fully specified
B21: cr634 (nucleic acid)
guide: B1 guide with A32G, A58G, G59A
modifications: listed as DNA, chemistry not fully specified
B22: cr242 (nucleic acid)
guide: B1 guide with C45G, G48C, G59A, C60G, G69C, G77T, C81A
modifications: listed as DNA, chemistry not fully specified
B23: cr014 (nucleic acid)
guide: B1 guide with A5C, G59A
modifications: listed as DNA, chemistry not fully specified
B24: cr006 (nucleic acid)
guide: B1 guide with T2G, G59A
modifications: listed as DNA, chemistry not fully specified
B25: cr064 (nucleic acid)
guide: B1 guide with A5T, G59A
modifications: listed as DNA, chemistry not fully specified
B26: cr889 (nucleic acid)
guide: B1 guide with G43A, C51T, G59A, G72T, C86A
modifications: listed as DNA, chemistry not fully specified
B27: cr573 (nucleic acid)
guide: B1 guide with A31T, T53A, G59A, G71C
modifications: listed as DNA, chemistry not fully specified
B28: cr074 (nucleic acid)
guide: B1 guide with A6T, A8C, G59A
modifications: listed as DNA, chemistry not fully specified
B29: cr349 (nucleic acid)
guide: B1 guide with G59A, C81T
modifications: listed as DNA, chemistry not fully specified
B30: cr051 (nucleic acid)
guide: B1 guide with G1T, G7C, G59A
modifications: listed as DNA, chemistry not fully specified

These molecules were tested on K562 CRISPRi cells (assay: Constant region variant library pooled growth screen, K562). Conditions: sgRNA constant region variants; activity relative to the original, un-modified constant region cr995.
Format: cell-based, human
Summary of the method: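 Library of sgRNA constant-region variants, each paired with 36 targeting sequences (essential-gene and non-targeting), transduced in duplicate into K562 CRISPRi cells, puromycin-selected and grown 4–8 days at >2000× coverage. Activity per variant is its growth phenotype normalised to the same targeting sequence with unmodified constant region.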
B1 was tested, and the Mean relative activity was 1.041.
B2 showed a Mean relative activity of 1.041.

Same assay, conditions: sgRNA constant region variants; activity relative to the unmodified constant region cr995
For B3, the Mean relative activity was 0.2933.
B4 was tested, and the Mean relative activity was 0.3153.
Molecule B5 has a Mean relative activity of 0.3233.
B6 gave a Mean relative activity of 0.313.
For B7, the Mean relative activity was 0.3211.
Work on B8 yielded a Mean relative activity of 0.2878.
Work on B9 yielded a Mean relative activity of 0.3221.
B10 gave a Mean relative activity of 0.3141.
B11 was tested, and the Mean relative activity was 0.32.
With B12 the Mean relative activity was 0.3033.
Work on B13 yielded a Mean relative activity of 0.2959.
For B14, the Mean relative activity was 0.2939.
For B15, the Mean relative activity was 0.3045.
B16 gave a Mean relative activity of 0.3244.
For B17, the Mean relative activity was 0.3244.
B18 gave a Mean relative activity of 0.3195.
B19 was tested, and the Mean relative activity was 0.3225.
For B20, the Mean relative activity was 0.3103.

Same assay, conditions: sgRNA constant region variants; relative to the original, un-modified constant region cr995; CRISPRi
B21 showed a Mean relative activity of 0.3508.
B22 gave a Mean relative activity of 0.3244.
Work on B23 yielded a Mean relative activity of 0.3395.
Molecule B24 has a Mean relative activity of 0.3275.
Work on B25 yielded a Mean relative activity of 0.3383.
For B26, the Mean relative activity was 0.3347.
With B27 the Mean relative activity was 0.3297.
Work on B28 yielded a Mean relative activity of 0.341.
For B29, the Mean relative activity was 0.3326.
In the case of B30, the Mean relative activity is reported as 0.3367.
